PMC4971840

Target: GST-CypA (human cyclophilin A fused to GST), P62937-1
Assay: His6-HIVCA pull-down assay, SDS/PAGE band densitometry
Details: n = 3, parent: est. 0.45, read off a plot

“wild-type HIV-1 capsid protein with an N-terminal 6-his tag (His6-HIVCA) (from UniProt P04591) A77P” showed an other: CypA/CA ratio (*P < 0.05) of 0.063.

Substance “wild-type HIV-1 capsid protein with an N-terminal 6-his tag (His6-HIVCA) (from UniProt P04591) A78V” has an other: CypA/CA ratio of 0.43.

“wild-type HIV-1 capsid protein with an N-terminal 6-his tag (His6-HIVCA) (from UniProt P04591) L189F” gave an other: CypA/CA ratio of 0.53.

For “wild-type HIV-1 capsid protein with an N-terminal 6-his tag (His6-HIVCA) (from UniProt P04591) L189I”, the other: CypA/CA ratio was 0.36.

In the case of “wild-type HIV-1 capsid protein with an N-terminal 6-his tag (His6-HIVCA) (from UniProt P04591) L189P”, the other: CypA/CA ratio is reported as 0.43.

Substance “wild-type HIV-1 capsid protein with an N-terminal 6-his tag (His6-HIVCA) (from UniProt P04591) W23A” has an other: CypA/CA ratio of 0.26.
